Like-named read-outs stand apart in the source and are kept apart here. Where no end group is shown, it is not given here.
T1: Human TROP2 ECD (31-274 AA) (human, UniProt P09758 31-274, biotinylated)
T1 construct: also called biotinylated TROP2; TROP2-biotin
T1 sequence: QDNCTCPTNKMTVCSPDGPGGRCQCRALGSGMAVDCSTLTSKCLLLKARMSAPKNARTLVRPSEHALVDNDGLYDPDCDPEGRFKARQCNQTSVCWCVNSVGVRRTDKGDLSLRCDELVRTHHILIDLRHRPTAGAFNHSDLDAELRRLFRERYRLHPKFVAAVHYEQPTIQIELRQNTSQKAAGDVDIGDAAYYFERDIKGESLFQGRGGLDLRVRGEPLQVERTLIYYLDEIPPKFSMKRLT

T2: Human TROP2 Full length (human, UniProt P09758 31-323)
T2 sequence: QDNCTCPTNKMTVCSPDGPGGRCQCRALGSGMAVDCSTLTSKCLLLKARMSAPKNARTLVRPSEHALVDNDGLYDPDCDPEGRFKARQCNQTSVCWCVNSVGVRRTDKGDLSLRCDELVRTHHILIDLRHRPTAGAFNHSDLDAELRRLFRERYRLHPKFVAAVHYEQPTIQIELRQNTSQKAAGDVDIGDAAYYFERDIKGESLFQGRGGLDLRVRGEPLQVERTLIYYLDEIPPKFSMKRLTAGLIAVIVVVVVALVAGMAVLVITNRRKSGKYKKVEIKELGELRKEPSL

T3: Cyno TROP2 Full length (cynomolgus monkey, UniProt P09758 31-323 (human entry))
T3 chain: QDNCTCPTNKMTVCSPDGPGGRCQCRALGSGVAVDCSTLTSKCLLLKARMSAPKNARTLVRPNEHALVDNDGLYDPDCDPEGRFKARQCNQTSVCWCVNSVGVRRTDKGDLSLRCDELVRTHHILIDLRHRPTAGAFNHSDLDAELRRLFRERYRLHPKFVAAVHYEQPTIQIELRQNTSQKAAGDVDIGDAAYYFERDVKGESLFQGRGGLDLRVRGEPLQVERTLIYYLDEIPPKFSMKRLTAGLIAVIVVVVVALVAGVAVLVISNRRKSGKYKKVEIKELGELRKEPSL


How the values were obtained:
[1] = biological target: T1, Human TROP2 ECD (31-274 AA); test: ELISA; biotinylated TROP2 on neutravidin plates, PC titrated, HRP secondary
Procedure: (§1) TROP2 TCEs and masked polypeptide complexes (PCs) were evaluated for their ability to bind TROP2 and CD3 by ELISA. […] The TCE or PC constructs diluted in buffer were then added to the antigen coated plates. Binding was measured using a standard horse radish peroxidase secondary antibody. The concentration of TCE or PC required to achieve 50% maximal signal (EC₅₀) was calculated.

Human TROP2 Full length = biological target: T2, Human TROP2 Full length; test: cell-based or functional assay
Cyno TROP2 Full length = biological target: T3, Cyno TROP2 Full length; test: cell-based or functional assay
CD3 = biological target: T4, CD3 (human, UniProt P07766 23-126, limits assumed, biotinylated); test: ELISA; biotinylated CD3 on neutravidin plates, PC titrated, HRP secondary
T4 construct: also called biotinylated CD3; CD3-biotin
Procedure: as §1

TBD-21 (HC F108A) [2] = biological target: T5, TBD-21 (HC F108A); test: competition ELISA, peptide vs Fab binding to captured biotin-TROP2
T5 construct: Fab; also called HC F108A mutant
Procedure: (§2) ELISA-based competitive inhibition studies were used to test the ability of each peptide to inhibit the TBDs from binding to TROP2. […] Inhibitory peptides were titrated in a dilution series and pre-incubated with a constant concentration of antibody. Inhibitory peptide and antibody mixtures were then incubated on the antigen captured plates. A horseradish peroxidase conjugate secondary antibody was then used to detect the antibody binding to the plate-bound antigen. The ELISA signal was plotted versus log-scale peptide concentration. A dose dependent decrease of signal was indicative of peptides that compete for antibody binding to the cognate antigen. Graphpad Prism software was used to calculate the inhibitory concentrations of peptide required to achieve 50% maximal signal (IC₅₀s).

TBD-17 (HC S104A) [3] = biological target: T6, TBD-17 (HC S104A); test: as above
T6 construct: Fab; also called HC S104A mutant
Procedure: as §2

TBD-22 (HC D109A) [4] = biological target: T7, TBD-22 (HC D109A); test: as above
T7 construct: Fab; also called HC D109A mutant
Procedure: as §2

TBD-11 (HC R98A) [5] = biological target: T8, TBD-11 (HC R98A); test: as above
T8 construct: Fab; also called HC R98A mutant
Procedure: as §2

TBD-21 (HC F108A) [6] = biological target: T5, TBD-21 (HC F108A); test: as above; remark: listed apart in the source
Procedure: as §2

TBD-17 (HC S104A) [7] = biological target: T6, TBD-17 (HC S104A); test: as above; remark: listed apart in the source
Procedure: as §2

TBD-22 (HC D109A) [8] = biological target: T7, TBD-22 (HC D109A); test: as above; remark: listed apart in the source
Procedure: as §2

TBD-11 (HC R98A) [9] = biological target: T8, TBD-11 (HC R98A); test: as above; remark: listed apart in the source
Procedure: as §2

T6 sequence (VH, as listed by the source, chain 1 of 2, one chain of several): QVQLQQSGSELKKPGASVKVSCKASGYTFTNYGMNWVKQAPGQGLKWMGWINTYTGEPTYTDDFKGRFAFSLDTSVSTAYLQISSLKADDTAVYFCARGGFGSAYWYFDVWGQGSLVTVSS
T4 sequence (P07766 23-126 limits assumed): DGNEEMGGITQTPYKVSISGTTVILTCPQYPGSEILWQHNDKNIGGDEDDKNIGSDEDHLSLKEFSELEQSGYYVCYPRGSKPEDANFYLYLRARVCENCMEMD
T7 sequence (VH, as listed by the source, chain 1 of 2, one chain of several): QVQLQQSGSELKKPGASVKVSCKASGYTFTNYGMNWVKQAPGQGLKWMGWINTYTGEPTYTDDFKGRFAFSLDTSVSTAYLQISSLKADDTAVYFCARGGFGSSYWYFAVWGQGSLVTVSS
T8 sequence (VH, as listed by the source, chain 1 of 2, one chain of several): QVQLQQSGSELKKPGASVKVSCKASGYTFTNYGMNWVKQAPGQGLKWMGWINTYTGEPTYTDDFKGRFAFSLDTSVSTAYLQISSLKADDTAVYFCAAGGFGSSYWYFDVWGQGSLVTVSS

Binder | EC50 [1] [µM] | H292 Cytotoxicity EC50 (pM) (Human TROP2 Full length) | CyTROP2 HEK293 EC50 (pM) (Cyno TROP2 Full length) | EC50 (CD3) [µM] | also measured
PC-34 (bispecific antibody, Masked polypeptide complex: anti-TROP2 F108A, anti-CD3 H101A; CD3 mask …) light: GGVDFCALYHWPICYQGGGGSGGLSGRSDAGSPLGLAGSGGSDIQLTQSPSSLSASVGDRVSITCKASQDVSIAVAWYQQKPGKAPKLLIYSASYRYTGVPDRFSGSGSGTDFTLTISSLQPEDFAVYYCQQHYITPLTFGAGTKVEIKRTVAAPSVFIFPPSDEQLKSGTASVVCLLNNFYPREAKVQWKVDNALQSGNSQESVTEQDSKDSTYSLSSTLTLSKADYEKHKVYACEVTHQGLSSPVTKSFNRGEC heavy: not shown | 0.828 | > 100000 | 16500 | 0.283 | –
PC-42 (bispecific antibody, Masked polypeptide complex: anti-TROP2 F108A, anti-CD3 with P41S, A49G, N87S ; E227D) light: GGVDFCALYHWPICYQGGGGSGGLSGRSDAGSPLGLAGSGGSDIQLTQSPSSLSASVGDRVSITCKASQDVSIAVAWYQQKPGKAPKLLIYSASYRYTGVPDRFSGSGSGTDFTLTISSLQPEDFAVYYCQQHYITPLTFGAGTKVEIKRTVAAPSVFIFPPSDEQLKSGTASVVCLLNNFYPREAKVQWKVDNALQSGNSQESVTEQDSKDSTYSLSSTLTLSKADYEKHKVYACEVTHQGLSSPVTKSFNRGEC heavy: EVQLVESGGGLVQPGGSLRLSCAASGSTFYTAVMGWVRQAPGKGLEWVAAIRWTALTTSYADSVKGRFTISRDGAKTTLYLQMNSLRPEDTAVYYCAARGTLGLFTTADSYDYWGQGTLVTVSSGGGGSGGGSGGASQCLGPEWEVCPYGGGGSGGGLSGRSDAGSPLGLAGSGGGSEVQLVESGGGLVQPGGSLKLSCAASGFTFNKYAMNWVRQASGKGLEWVGRIRSKYNNYATYYADSVKDRFTISRDDSKNTAYLQMNSLKTEDTAVYYCVRHGNFGNSYISYWAYWGQGTLVTVSSGGGGSGGGGSGGGGSQTVVTQEPSFSVSPGGTVTLTCRSSTGAVTSGNYANWVQQTPGQAPRGLIGGTKFLAPGVPDRFSGSILGNKAALTITGAQADDESDYYCVLWYSNRWVFGGGTKLTVLGGGGSQVQLQQSGSELKKPGASVKVSCKASGYTFTNYGMNWVKQAPGQGLKWMGWINTYTGEPTYTDDFKGRFAFSLDTSVSTAYLQISSLKADDTAVYFCARGGFGSSYWYADVWGQGSLVTVSSASTKGPSVFPLAPSSKSTSGGTAALGCLVKDYFPEPVTVSWNSGALTSGVHTFPAVLQSSGLYSLSSVVTVPSSSLGTQTYICNVNHKPSNTKVDKKVEPKSC | 0.63 | 12200 | – | 0.0602 | –
PC-38 (bispecific antibody, Masked polypeptide complex: anti-TROP2 F108A, anti-CD3 F240A; CD3 mask …) light: GGVDFCALYHWPICYQGGGGSGGLSGRSDAGSPLGLAGSGGSDIQLTQSPSSLSASVGDRVSITCKASQDVSIAVAWYQQKPGKAPKLLIYSASYRYTGVPDRFSGSGSGTDFTLTISSLQPEDFAVYYCQQHYITPLTFGAGTKVEIKRTVAAPSVFIFPPSDEQLKSGTASVVCLLNNFYPREAKVQWKVDNALQSGNSQESVTEQDSKDSTYSLSSTLTLSKADYEKHKVYACEVTHQGLSSPVTKSFNRGEC heavy: not shown | 3.02 | > 100000 | – | 0.0776 | –
PC-45 (bispecific antibody, Masked polypeptide complex: anti-TROP2 F108A, anti-CD3 N30Q, I109V, G172A, V231A; CD3 mask …) light: GGVDFCALYHWPICYQGGGGSGGLSGRSDAGSPLGLAGSGGSDIQLTQSPSSLSASVGDRVSITCKASQDVSIAVAWYQQKPGKAPKLLIYSASYRYTGVPDRFSGSGSGTDFTLTISSLQPEDFAVYYCQQHYITPLTFGAGTKVEIKRTVAAPSVFIFPPSDEQLKSGTASVVCLLNNFYPREAKVQWKVDNALQSGNSQESVTEQDSKDSTYSLSSTLTLSKADYEKHKVYACEVTHQGLSSPVTKSFNRGEC heavy: not shown | 4.01 | > 100000 | – | 0.097 | –
PC-37 (bispecific antibody, Masked polypeptide complex: anti-TROP2 F108A, anti-CD3 F240A; CD3 mask …) light: GGVDFCALYHWPICYQGGGGSGGLSGRSDAGSPLGLAGSGGSDIQLTQSPSSLSASVGDRVSITCKASQDVSIAVAWYQQKPGKAPKLLIYSASYRYTGVPDRFSGSGSGTDFTLTISSLQPEDFAVYYCQQHYITPLTFGAGTKVEIKRTVAAPSVFIFPPSDEQLKSGTASVVCLLNNFYPREAKVQWKVDNALQSGNSQESVTEQDSKDSTYSLSSTLTLSKADYEKHKVYACEVTHQGLSSPVTKSFNRGEC heavy: not shown | 1.51 | > 100000 | > 100000 | 1.3 | HCT116 Cytotoxicity EC50 (pM) (Human TROP2 Full length): > 100000 pM
PC-35 (bispecific antibody, Masked polypeptide complex: anti-TROP2 F108A, anti-CD3 H101A; CD3 mask …) light: GGVDFCALYHWPICYQGGGGSGGLSGRSDAGSPLGLAGSGGSDIQLTQSPSSLSASVGDRVSITCKASQDVSIAVAWYQQKPGKAPKLLIYSASYRYTGVPDRFSGSGSGTDFTLTISSLQPEDFAVYYCQQHYITPLTFGAGTKVEIKRTVAAPSVFIFPPSDEQLKSGTASVVCLLNNFYPREAKVQWKVDNALQSGNSQESVTEQDSKDSTYSLSSTLTLSKADYEKHKVYACEVTHQGLSSPVTKSFNRGEC heavy: not shown | 2.08 | > 100000 | > 100000 | 0.03 | HCT116 Cytotoxicity EC50 (pM) (Human TROP2 Full length): > 100000 pM
PC-36 (bispecific antibody, Masked polypeptide complex: anti-TROP2 F108A, anti-CD3 F104A) light: GGVDFCALYHWPICYQGGGGSGGLSGRSDAGSPLGLAGSGGSDIQLTQSPSSLSASVGDRVSITCKASQDVSIAVAWYQQKPGKAPKLLIYSASYRYTGVPDRFSGSGSGTDFTLTISSLQPEDFAVYYCQQHYITPLTFGAGTKVEIKRTVAAPSVFIFPPSDEQLKSGTASVVCLLNNFYPREAKVQWKVDNALQSGNSQESVTEQDSKDSTYSLSSTLTLSKADYEKHKVYACEVTHQGLSSPVTKSFNRGEC heavy: not shown | 1.47 | > 100000 | > 870000 | 2.92 | –
PC-44 (bispecific antibody, Masked polypeptide complex: anti-TROP2 F108A, anti-CD3 N30Q, I109V, G172A, V231A; CD3 mask …) light: GGVDFCALYHWPICYQGGGGSGGLSGRSDAGSPLGLAGSGGSDIQLTQSPSSLSASVGDRVSITCKASQDVSIAVAWYQQKPGKAPKLLIYSASYRYTGVPDRFSGSGSGTDFTLTISSLQPEDFAVYYCQQHYITPLTFGAGTKVEIKRTVAAPSVFIFPPSDEQLKSGTASVVCLLNNFYPREAKVQWKVDNALQSGNSQESVTEQDSKDSTYSLSSTLTLSKADYEKHKVYACEVTHQGLSSPVTKSFNRGEC heavy: not shown | 1.14 | 51000 | – | 0.0773 | –
PC-46 (bispecific antibody, Masked polypeptide complex: anti-TROP2 F108A, anti-CD3 N30Q, I109V, G172A, V231A) light: GGVDFCALYHWPICYQGGGGSGGLSGRSDAGSPLGLAGSGGSDIQLTQSPSSLSASVGDRVSITCKASQDVSIAVAWYQQKPGKAPKLLIYSASYRYTGVPDRFSGSGSGTDFTLTISSLQPEDFAVYYCQQHYITPLTFGAGTKVEIKRTVAAPSVFIFPPSDEQLKSGTASVVCLLNNFYPREAKVQWKVDNALQSGNSQESVTEQDSKDSTYSLSSTLTLSKADYEKHKVYACEVTHQGLSSPVTKSFNRGEC heavy: not shown | 2.55 | > 100000 | 45600 | 0.555 | –
EDFCKLYNWPICYQ (cysteine pairing not given here; also: biotinylated, site not given here) [Peptide-7] | – | – | – | – | IC50 (TBD-21 (HC F108A) [2]): 4.01 µM; IC50 (TBD-17 (HC S104A) [3]): 3.77 µM; IC50 (TBD-22 (HC D109A) [4]): 0.13 µM; IC50 (TBD-11 (HC R98A) [5]): 1 µM
VDFCGLYHWPICYQ (cysteine pairing not given here; also: biotinylated, site not given here) [Peptide-8] | – | – | – | – | IC50 (TBD-21 (HC F108A) [2]): 0.61 µM; IC50 (TBD-17 (HC S104A) [3]): 0.89 µM; IC50 (TBD-22 (HC D109A) [4]): 0.02 µM; IC50 (TBD-11 (HC R98A) [5]): 0.3 µM; IC50 (TBD-21 (HC F108A) [6]): 1.01 µM; IC50 (TBD-17 (HC S104A) [7]): 0.87 µM; IC50 (TBD-22 (HC D109A) [8]): 0.08 µM; IC50 (TBD-11 (HC R98A) [9]): 0.62 µM

— patent publication US20230357429A1 (JANUX THERAPEUTICS, published 2023)
